The record followed here is publication PMC9520665, “Chaperonin containing TCP-1 (CCT/TRiC) is a novel therapeutic and diagnostic target for neuroblastoma” (Frontiers in Oncology, 2022).

Where no end group is shown, it is not given here.

One experiment addresses T1, full-length HIS-CCT2 (human, UniProt P78371-1 1-535).
T1 construct: CCT2, second subunit of chaperonin containing TCP-1 (CCT/TRiC); The species is stated for CCT2 in general (human), not for the recombinant construct; also called recombinant full-length CCT2 protein; CCTβ; source: E. coli BL21 (DE3) and Rosetta, purified (Ni-NTA, SEC)
T1 sequence (looked up): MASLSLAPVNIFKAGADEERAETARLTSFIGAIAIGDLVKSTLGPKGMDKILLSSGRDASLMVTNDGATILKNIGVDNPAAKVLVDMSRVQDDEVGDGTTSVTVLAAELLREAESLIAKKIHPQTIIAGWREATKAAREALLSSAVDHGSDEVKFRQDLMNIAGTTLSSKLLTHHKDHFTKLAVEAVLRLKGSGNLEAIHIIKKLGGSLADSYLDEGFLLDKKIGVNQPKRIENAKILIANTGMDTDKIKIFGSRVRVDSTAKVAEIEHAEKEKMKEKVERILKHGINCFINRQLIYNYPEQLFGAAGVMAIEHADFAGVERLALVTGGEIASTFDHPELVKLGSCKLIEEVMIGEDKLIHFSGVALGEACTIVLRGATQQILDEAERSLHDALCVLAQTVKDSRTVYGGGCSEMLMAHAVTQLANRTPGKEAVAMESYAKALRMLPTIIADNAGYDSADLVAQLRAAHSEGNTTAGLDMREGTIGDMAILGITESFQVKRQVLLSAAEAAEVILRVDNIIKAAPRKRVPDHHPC
The experiment in a line: pull-down; 0.1-50 nmol biotin-CT20p (or biotin alone) mixed with 0.1 nmol recombinant CCT2 protein in 20 mM Tris-HCl, 3 h at room temperature, then overnight at 4°C with streptavidin-agarose beads; immunoblot for CCT2. The note with it: both partners purified.

The target in the next experiment is T2, CCT2(17-526) (human, UniProt P78371-1 17-526).
T2 construct: CCT2 truncation that retains more of the equatorial domain; A TEV protease site replaced the thrombin site between GST and CCT2
T2 sequence (looked up): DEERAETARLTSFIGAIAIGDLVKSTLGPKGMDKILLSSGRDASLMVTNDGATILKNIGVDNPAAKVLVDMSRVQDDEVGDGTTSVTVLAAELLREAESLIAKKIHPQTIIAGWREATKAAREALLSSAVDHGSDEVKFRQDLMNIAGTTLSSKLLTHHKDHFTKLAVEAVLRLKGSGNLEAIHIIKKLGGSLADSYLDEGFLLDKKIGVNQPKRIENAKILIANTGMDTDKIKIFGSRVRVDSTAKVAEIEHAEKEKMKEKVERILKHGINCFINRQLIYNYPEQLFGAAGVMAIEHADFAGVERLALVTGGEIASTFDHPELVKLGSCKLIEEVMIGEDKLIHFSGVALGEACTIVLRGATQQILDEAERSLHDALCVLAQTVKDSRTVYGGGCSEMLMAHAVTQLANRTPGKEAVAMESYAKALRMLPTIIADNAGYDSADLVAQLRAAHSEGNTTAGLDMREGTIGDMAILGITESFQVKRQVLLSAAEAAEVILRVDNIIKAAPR
The experiment is described as above. The conditions noted are these: both partners purified.

B1: biotinylated CT20p (peptide)
peptide: VTIFVAGVLTASLTIWKKMG
modifications: also: biotin, position not given here
notes: 20 amino acid amphipathic peptide derived from the C-terminus of the apoptotic protein Bax; also called biotin-CT20p; source: synthetic peptide, commercially synthesized (BioPeptides Inc)
As to B1, the binding result in the experiment with full-length HIS-CCT2 and with CCT2(17-526) was “binds” throughout.
